Legend:
[1] = molecular target: T1, DNMT3a-CD (mouse, UniProt O88508 608-908); assay: competition EMSA; vs 1 nM Cy5.5-ecRNA-1; competitor 1-100 nM; 20 mM HEPES, 40 mM KCl, 1 mM EDTA, 0.2 mM DTT, 0.1 mg/ml BSA, 0.1% Tween-20, 20% glycerol; pH not stated; 1 h at 37 C; 1 nM probe; native 4-20% PAGE; details: protein: recombinant; chain copies: 2; blunt
[2] = molecular target: T1, DNMT3a-CD; assay: EMSA; binding not impaired; 20 mM HEPES, 40 mM KCl, 1 mM EDTA, 0.2 mM DTT, 0.1 mg/ml BSA, 0.1% Tween-20, 20% glycerol; pH not stated; 1 h at 37 C; 1 nM probe; native 4-20% PAGE; details: protein: recombinant; label: 5'-Cy5.5; unstructured (predicted)
[3] = molecular target: T1, DNMT3a-CD; assay: EMSA; binding not altered; 20 mM HEPES, 40 mM KCl, 1 mM EDTA, 0.2 mM DTT, 0.1 mg/ml BSA, 0.1% Tween-20, 20% glycerol; pH not stated; 1 h at 37 C; 1 nM probe; native 4-20% PAGE; details: protein: recombinant; label: 5'-Cy5.5; unstructured (predicted)
[4] = molecular target: DNMT3a (in DNMT3a/DNMT3l complex);DNMT3l (human;human, UniProt Q9Y6K1;Q9UJW3 1-912;1-386, |); assay: EMSA; 0.2 uM protein; 20 mM HEPES, 40 mM KCl, 1 mM EDTA, 0.2 mM DTT, 0.1 mg/ml BSA, 0.1% Tween-20, 20% glycerol; pH not stated; 1 h at 37 C; 1 nM probe; native 4-20% PAGE
DNMT3a (in DNMT3a/DNMT3l complex);DNMT3l, sequence (Q9Y6K1 whole entry, chain 1 of 2): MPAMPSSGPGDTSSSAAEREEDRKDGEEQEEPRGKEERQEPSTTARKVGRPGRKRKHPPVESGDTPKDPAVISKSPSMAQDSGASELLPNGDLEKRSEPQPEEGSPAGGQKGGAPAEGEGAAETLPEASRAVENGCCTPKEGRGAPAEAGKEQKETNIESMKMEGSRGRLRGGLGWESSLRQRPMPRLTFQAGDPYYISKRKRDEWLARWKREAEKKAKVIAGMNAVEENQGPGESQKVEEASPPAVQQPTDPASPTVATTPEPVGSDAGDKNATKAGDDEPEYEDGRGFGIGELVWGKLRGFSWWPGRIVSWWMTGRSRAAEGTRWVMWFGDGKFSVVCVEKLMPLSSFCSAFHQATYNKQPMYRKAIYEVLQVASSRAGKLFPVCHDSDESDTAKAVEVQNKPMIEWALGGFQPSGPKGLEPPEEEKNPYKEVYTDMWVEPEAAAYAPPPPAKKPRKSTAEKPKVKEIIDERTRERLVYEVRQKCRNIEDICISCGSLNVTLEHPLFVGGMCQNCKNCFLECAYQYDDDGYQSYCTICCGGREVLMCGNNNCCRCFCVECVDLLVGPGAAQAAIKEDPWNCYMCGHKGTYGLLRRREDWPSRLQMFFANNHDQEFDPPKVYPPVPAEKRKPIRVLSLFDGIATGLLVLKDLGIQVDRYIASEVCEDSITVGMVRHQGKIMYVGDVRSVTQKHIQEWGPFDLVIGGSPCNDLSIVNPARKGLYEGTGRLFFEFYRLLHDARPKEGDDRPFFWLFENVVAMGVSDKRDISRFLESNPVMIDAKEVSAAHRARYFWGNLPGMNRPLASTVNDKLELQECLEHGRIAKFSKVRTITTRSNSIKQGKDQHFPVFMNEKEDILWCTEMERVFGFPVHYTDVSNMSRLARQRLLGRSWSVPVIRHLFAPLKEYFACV
DNMT3a (in DNMT3a/DNMT3l complex);DNMT3l, sequence (Q9UJW3 whole entry, chain 2 of 2): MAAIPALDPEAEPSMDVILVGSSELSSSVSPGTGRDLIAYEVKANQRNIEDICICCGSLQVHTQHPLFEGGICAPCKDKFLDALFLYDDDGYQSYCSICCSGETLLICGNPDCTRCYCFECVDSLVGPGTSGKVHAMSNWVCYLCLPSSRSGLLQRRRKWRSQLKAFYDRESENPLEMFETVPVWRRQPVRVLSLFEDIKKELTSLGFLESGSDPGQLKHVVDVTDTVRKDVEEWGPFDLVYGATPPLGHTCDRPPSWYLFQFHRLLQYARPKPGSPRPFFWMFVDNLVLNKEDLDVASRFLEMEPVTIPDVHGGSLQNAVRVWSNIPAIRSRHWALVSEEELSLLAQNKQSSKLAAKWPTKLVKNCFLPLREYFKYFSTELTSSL

[5] = molecular target: T1, DNMT3a-CD; assay: EMSA; DNMT3a-CD 0.002-0.2 uM; value only in figure, text: low nanomolar, same as dsDNA (P=0.49); 20 mM HEPES, 40 mM KCl, 1 mM EDTA, 0.2 mM DTT, 0.1 mg/ml BSA, 0.1% Tween-20, 20% glycerol; pH not stated; 1 h at 37 C; 1 nM probe; native 4-20% PAGE; details: protein: recombinant; label: 5'-Cy5.5; predicted stem-loop
[6] = molecular target: T1, DNMT3a-CD; assay: EMSA; 0.2 uM protein; complete binding; 20 mM HEPES, 40 mM KCl, 1 mM EDTA, 0.2 mM DTT, 0.1 mg/ml BSA, 0.1% Tween-20, 20% glycerol; pH not stated; 1 h at 37 C; 1 nM probe; native 4-20% PAGE; details: protein: recombinant; label: 5'-Cy5.5; predicted stem-loop

T1 sequence (O88508 608-908): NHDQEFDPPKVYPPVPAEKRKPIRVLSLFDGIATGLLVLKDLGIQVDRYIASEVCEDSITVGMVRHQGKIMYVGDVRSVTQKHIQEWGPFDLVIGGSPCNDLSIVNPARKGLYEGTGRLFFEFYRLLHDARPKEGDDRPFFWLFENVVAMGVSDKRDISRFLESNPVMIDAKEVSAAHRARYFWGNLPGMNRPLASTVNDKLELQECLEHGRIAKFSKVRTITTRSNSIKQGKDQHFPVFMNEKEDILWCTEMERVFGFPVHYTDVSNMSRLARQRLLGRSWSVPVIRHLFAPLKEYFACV

B1: ecDNA-1 unlabelled competitor (dsDNA)
DNA 1: GGGGACACGCCCTCTGTTCCCTTAT
DNA 2: ATAAGGGAACAGAGGGCGTGTCCCC
- IC50 [1]: > 20 fold excess over 1 nM ecRNA-1

Binder: GUCGACACGCCCUCUGUUCCGUUAG (ssRNA) [mutant ecRNA-1]
- binding result [2]: binds

Binder: GAUGAUCCUGCCUUGAAGUGACGCU (ssRNA) [mutant ecRNA-2]
- binding result [3]: binds

Binder: GGGGACACGCCCUCUGUUCCCUUAU (ssRNA) [ecRNA-1]
- binding result [4]: binds
- binding result [5]: binds

Binder: GUCUGUGCACCGUGUGCAUAUACAG (ssRNA) [ecRNA-2]
- binding result [4]: binds
- binding result [6]: binds
